B1: BxlB (GH3 β-xylosidase): BxlBN7 (protein)
parent chain: MAVFKSWNLALLSSLFIPALCQSNYPDCTTGPLSELPICDTSLSPLERAKSLVSALTLEEKINNTGHEAAGSSRLGLPAYNWWNEALHGVAEKHGVSFEESGDFSYATSFPAPIVLGAAFNDALIRRVAEIISTEARAFSNSDHAGIDYWTPNVNPFKDPRWGRGQETPGEDPLHCSRYVKEFVGGLQGDDPEKPKVVATCKHLAAYDLEEWGGVSRFEFDAKVSAVDLLEYYLPPFKTCAVDASVGAFMCSYNALNGVPACADRYLLQTVLREHWGWEGPGHWVTGDCGAVERIQTYHHYVESGPEAAAAALNAGVDLDCGTWLPSYLGEAERQGLISNETLDAALTRLYTSLVQLGYFDPAEGQPLRSLGWDDVATSEAEELAKTVAIQGTVLLKNIDWTLPLKANGTLALIGPFINFTTELQSNYAGPAKHIPTMIEAAERLGYNVLTAPGTEVNSTSTDGFDDALAIAAEADALIFFGGIDNTVEEESLDRTRIDWPGNQEELILELAELGRPLTVVQFGGGQVDDSALLASAGVGAIVWAGYPSQAGGAGVFDVLTGKAAPAGRLPITQYPKSYVDEVPMTDMNLQPGTDNPGRTYRWYEDAVLPFGFGLHYTTFNVSWAKKAFGPYDAATLARGKNPSSNIVDTFSLAVTNTGDVASDYVALVFASAPELGAQPAPIKTLVGYSRASLIKPGETRKVDVEVTVAPLTRATEDGRVVLYPGEYTLLVDVNDEYPTAKFEIKGDVQVLEKFPLSGNDSD
B2: BxlB (GH3 β-xylosidase): BxlBN1 (protein)
parent chain: B1 parent chain
B3: BxlB (GH3 β-xylosidase): BxlBN1;7 (protein)
parent chain: B1 parent chain
B4: BxlB (GH3 β-xylosidase): BxlBN5;7 (protein)
parent chain: B1 parent chain
B5: BxlB (GH3 β-xylosidase): BxlBN1;5;7 (protein)
parent chain: B1 parent chain
B6: BxlB (GH3 β-xylosidase): BxlBnon-glyc (protein)
parent chain: B1 parent chain
B7: BxlB (GH3 β-xylosidase): BxlBN5 (protein)
parent chain: B1 parent chain
B8: BxlB (GH3 β-xylosidase): BxlBN1;5 (protein)
parent chain: B1 parent chain
B9: BxlB^wt (GH3 β-xylosidase BxlB) (Aspergillus nidulans FGSC A4) (protein)
chain: NYPDCTTGPLSELPICDTSLSPLERAKSLVSALTLEEKINNTGHEAAGSSRLGLPAYNWWNEALHGVAEKHGVSFEESGDFSYATSFPAPIVLGAAFNDALIRRVAEIISTEARAFSNSDHAGIDYWTPNVNPFKDPRWGRGQETPGEDPLHCSRYVKEFVGGLQGDDPEKPKVVATCKHLAAYDLEEWGGVSRFEFDAKVSAVDLLEYYLPPFKTCAVDASVGAFMCSYNALNGVPACADRYLLQTVLREHWGWEGPGHWVTGDCGAVERIQTYHHYVESGPEAAAAALNAGVDLDCGTWLPSYLGEAERQGLISNETLDAALTRLYTSLVQLGYFDPAEGQPLRSLGWDDVATSEAEELAKTVAIQGTVLLKNIDWTLPLKANGTLALIGPFINFTTELQSNYAGPAKHIPTMIEAAERLGYNVLTAPGTEVNSTSTDGFDDALAIAAEADALIFFGGIDNTVEEESLDRTRIDWPGNQEELILELAELGRPLTVVQFGGGQVDDSALLASAGVGAIVWAGYPSQAGGAGVFDVLTGKAAPAGRLPITQYPKSYVDEVPMTDMNLQPGTDNPGRTYRWYEDAVLPFGFGLHYTTFNVSWAKKAFGPYDAATLARGKNPSSNIVDTFSLAVTNTGDVASDYVALVFASAPELGAQPAPIKTLVGYSRASLIKPGETRKVDVEVTVAPLTRATEDGRVVLYPGEYTLLVDVNDEYPTAKFEIKGDVQVLEKFPLSGNDSD
notes: homologous secreted expression in A. nidulans A773 (pEXPYR, glaA promoter, A. niger glucoamylase signal peptide); purified by DEAE and Superdex 200; N-glycosylated at N63, N340, N408, N419, N458, N621, N760

Molecular target: not listed separately
Experiment: western blot of crude extracellular extract, polyclonal anti-BxlB
Settings: glycan lost; control: BxlBwt

| Molecule | expression_or_secretion |
| --- | --- |
| B1 | decreases |
| B2 | decreases |
| B3 | decreases |
| B4 | decreases |
| B5 | decreases |
| B6 | decreases |
| B7 | decreases |
| B8 | decreases |

System: T1, O=[N+]([O-])c1ccc(O[C@@H]2OC[C@@H](O)[C@H](O)[C@H]2O)cc1
T1 construct: homologous secreted expression in A. nidulans A773 (pEXPYR, glaA promoter, A. niger glucoamylase signal peptide); purified by DEAE and Superdex 200; N-glycosylated at N63, N340, N408, N419, N458, N621, N760
Experiment: purified protein
Format: biochemical, Aspergillus nidulans
Settings: 0.05 M ammonium acetate pH 5.0, 60 °C, 1–20 mM substrate

| Molecule | Km [µM] | Vmax [µmol/min/mg] | kcat [s⁻¹] | kcat/Km [M⁻¹ s⁻¹] |
| --- | --- | --- | --- | --- |
| BxlB^wt (GH3 β-xylosidase BxlB) (Aspergillus nidulans FGSC A4; N340Q/N408Q/N419Q/N621Q/N760Q) | 2910 ± 180 | 21.9 | 30.1 | 10300 |
| BxlB^wt (GH3 β-xylosidase BxlB) (Aspergillus nidulans FGSC A4; N340Q/N408Q/N419Q/N621Q) | 2490 ± 430 | 17.3 | 23.7 | 9510 |
| BxlB^wt (GH3 β-xylosidase BxlB) (Aspergillus nidulans FGSC A4; N340Q/N408Q/N419Q/N621Q/N63Q) | 2810 ± 110 | 20.5 | 28 | 9940 |
| BxlB^wt (GH3 β-xylosidase BxlB) (Aspergillus nidulans FGSC A4; N340Q/N408Q/N419Q/N458Q/N621Q) | 9920 ± 1050 | 4.12 | 5.64 | 570 |
| BxlB^wt (GH3 β-xylosidase BxlB) (Aspergillus nidulans FGSC A4; N340Q/N408Q/N419Q/N458Q/N621Q/N63Q) | 3190 ± 220 | 3.42 | 4.37 | 1270 |
| BxlB^wt (GH3 β-xylosidase BxlB) (Aspergillus nidulans FGSC A4; N340Q/N408Q/N419Q/N621Q/N63Q/N760Q) | 2710 ± 210 | 6.08 | 3.71 |  |
| BxlB^wt (GH3 β-xylosidase BxlB) (Aspergillus nidulans FGSC A4; N340Q/N408Q/N419Q/N458Q/N621Q/N63Q/N760Q) | 2360 ± 110 | 10.1 | 13.9 | 5870 |

System: O=[N+]([O-])c1ccc(O[C@@H]2OC[C@@H](O)[C@H](O)[C@H]2O)cc1
Experiment: purified protein
Format: biochemical, Aspergillus nidulans
Settings: 0.05 M ammonium acetate pH 5.0, 60 °C, 1–20 mM substrate

| Molecule | Km [µM] | Vmax [µmol/min/mg] | kcat [s⁻¹] | kcat/Km [M⁻¹ s⁻¹] |
| --- | --- | --- | --- | --- |
| BxlB^wt (GH3 β-xylosidase BxlB) (Aspergillus nidulans FGSC A4; N340Q/N408Q/N419Q/N458Q/N621Q/N760Q) | 2530 ± 230 | 9.49 | 13 | 5130 |

Molecular target: not listed separately
Experiment: CD thermal melt, 20-100 °C
Settings: glycan lost; control: BxlBwt

| Molecule | stability_or_folding, Tm |
| --- | --- |
| B1 | decreases |
| B2 | decreases |
| B3 | decreases |
| B4 | decreases, 55.1 vs 63.8 |
| B5 | decreases, 61.6 vs 63.8 |
| B7 | decreases |
| B8 | decreases, 61.1 vs 63.8 |

Molecular target: not listed separately
Experiment: far-UV CD secondary structure
Settings: glycan lost; control: BxlBwt

| Molecule | structure_or_conformation |
| --- | --- |
| B1 | no change |
| B2 | no change |
| B3 | no change |
| B4 | no change |
| B5 | no change |
| B6 | no change |
| B7 | no change |
| B8 | no change |

Molecular target: not listed separately
Experiment: Michaelis-Menten kinetics, purified enzyme, pH 5.0, 60 °C
Settings: glycan lost; control: BxlBwt

| Molecule | enzymatic_activity, kcat_Km |
| --- | --- |
| B1 | decreases, 1.27 vs 6.34 |
| B2 | decreases, 5.13 vs 6.34 |
| B3 | decreases, 0.57 vs 6.34 |
| B4 | increases, 9.94 vs 6.34 |
| B5 | increases, 9.51 vs 6.34, 50% higher catalytic efficiency as compared to the wild type |
| B6 | decreases, 5.87 vs 6.34, BxlBnon-glyc catalytic efficiency was reduced by 7% |
| B7 | decreases, 0.61 vs 6.34 |
| B8 | increases, 10.33 vs 6.34 |

Substrate: O=[N+]([O-])c1ccc(O[C@@H]2OC[C@@H](O)[C@H](O)[C@H]2O)cc1
Experiment: purified protein
Format: biochemical, Aspergillus nidulans
Settings: 0.05 M ammonium acetate pH 5.0, 60 °C, 1–20 mM substrate
Remark: another data set of the same source

| Molecule | Km [µM] | Vmax [µmol/min/mg] | kcat [s⁻¹] | kcat/Km [M⁻¹ s⁻¹] |
| --- | --- | --- | --- | --- |
| B9 | 2060 ± 130 | 9.55 | 13.1 | 6340 |

Molecular target: not listed separately
Experiment: ρNP-X activity of intracellular extract
Settings: glycan lost; control: BxlBwt

| Molecule | enzymatic_activity, fold_change |
| --- | --- |
| B5 | increases |

— article PMC6854716, “Redesigning N-glycosylation sites in a GH3 β-xylosidase improves the enzymatic efficiency” (Biotechnology for Biofuels, 2019)
